Results as given in patent US20150203577A1 (Chugai, published 2015).
Positions count from the first letter of the chain named.

T1: mouse FcγRII extracellular domain with C-terminal His tag (mouse, UniProt P08101 30-210)
T1 construct: Made on the basis of NCBI NP-034317.1; also called mFcγRII; mFcgRII
T1 sequence: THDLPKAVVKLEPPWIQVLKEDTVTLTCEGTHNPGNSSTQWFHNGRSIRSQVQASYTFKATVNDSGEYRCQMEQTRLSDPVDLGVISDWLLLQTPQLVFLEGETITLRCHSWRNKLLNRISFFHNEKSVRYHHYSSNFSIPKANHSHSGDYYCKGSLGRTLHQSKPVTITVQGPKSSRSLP

T2: mouse FcγRIII extracellular domain with C-terminal His tag (mouse, UniProt P08508 31-215)
T2 construct: Made on the basis of NCBI NP-034318.2; also called mFcγRIII; mFcgRIII
T2 chain: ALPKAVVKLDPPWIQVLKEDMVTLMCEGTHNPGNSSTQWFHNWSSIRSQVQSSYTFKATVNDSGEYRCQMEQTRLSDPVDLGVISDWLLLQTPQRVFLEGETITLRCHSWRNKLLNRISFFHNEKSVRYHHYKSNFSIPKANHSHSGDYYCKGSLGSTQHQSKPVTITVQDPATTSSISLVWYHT

T3: mouse FcγRII (mouse, UniProt P08101 30-210)
T3 construct: also called mFcγRII; mFcgRII
T3 sequence: T1 sequence

T4: mouse FcγRIII (mouse, UniProt P08508 31-215)
T4 construct: also called mFcγRIII; mFcgRIII
T4 chain: T2 chain

B1: H237-MB509/MRAL-k0 (antibody, mouse IgG1, kappa)
heavy: QVQLQESGPGLVKPSETLSLTCAVSGHSISHDHAWSWVRQPPGEGLEWIGFISYSGITNYNPSLQGRVTISRDNSKNTLYLQMNSLRAEDTAVYYCARSLARTTAMDYWGEGTLVTVSSAKTTPPSVYPLAPGSAAQTNSMVTLGCLVKGYFPEPVTVTWNSGSLSSGVHTFPAVLQSDLYTLSSSVTVPSSTWPSETVTCNVAHPASSTKVDKKIVPRDCGCKPCICEDYEVEMVFIFPPKPKDVLTITLTPKVTCVVVDISKDDPEVQFSWFVDDVEVHTAQTQPREEQFNSTFRSVSELPIMHQDWLNGKEFKCRVNSAAFPAPIEKTISKTKGRPKAPQVYTIPPPKEQMAKDKVSLTCMITDFFPEDITVEWQWNGQPAENYKNTQPIMDTDGSYFVYSKLNVQKSNWEAGNTFTCSVLHEGLHNHHTEKSLSHSPGK
light: not shown
notes: copies: 2 + 2
B2: H237-MB523/MRAL-k0 (antibody, mouse IgG1, kappa)
heavy: B1 heavy with E229I, D230P, Y231A, M235W
light: not shown
notes: copies: 2 + 2
B3: H237-MB518/MRAL-k0 (antibody, mouse IgG1, kappa)
heavy: B1 heavy with M235W
light: not shown
notes: copies: 2 + 2
B4: H237-MB516/MRAL-k0 (antibody, mouse IgG1, kappa)
heavy: B1 heavy with E229Q, D230P, Y231N
light: not shown
notes: copies: 2 + 2
B5: H237-MB511/MRAL-k0 (antibody, mouse IgG1, kappa)
heavy: B1 heavy with D230T
light: not shown
notes: copies: 2 + 2
B6: H237-MB514/MRAL-k0 (antibody, mouse IgG1, kappa)
heavy: B1 heavy with E229I, D230P, Y231A
light: not shown
notes: copies: 2 + 2
B7: H237-MB512/MRAL-k0 (antibody, mouse IgG1, kappa)
heavy: B1 heavy with D230V
light: not shown
notes: copies: 2 + 2
B8: H237-MB521/MRAL-k0 (antibody, mouse IgG1, kappa)
heavy: B1 heavy with D230V, M235W
light: not shown
notes: copies: 2 + 2
B9: H237-MB525/MRAL-k0 (antibody, mouse IgG1, kappa)
heavy: B1 heavy with E229Q, D230P, Y231N, M235W
light: not shown
notes: copies: 2 + 2
B10: H237-MB522/MRAL-k0 (antibody, mouse IgG1, kappa)
heavy: B1 heavy with D230P, Y231A, M235W
light: not shown
notes: copies: 2 + 2
B11: H237-MB517/MRAL-k0 (antibody, mouse IgG1, kappa)
heavy: B1 heavy with D230A, M235W
light: not shown
notes: copies: 2 + 2
B12: H237-MB520/MRAL-k0 (antibody)
heavy: B1 heavy with D230T, M235W
light: not shown
notes: copies: 2 + 2
B13: H237-MB510/MRAL-k0 (antibody, mouse IgG1, kappa)
heavy: B1 heavy with D230N
light: not shown
notes: copies: 2 + 2
B14: MB002 (antibody, mouse IgG1, kappa)
heavy: B1 heavy with E229D, D230V, Y231P, E234S, M235S
light: not shown
notes: copies: 2 + 2
B15: MB045 (antibody, mouse IgG1, kappa)
heavy: B1 heavy with E229T, D230V, Y231L, E234S, M235S
light: not shown
notes: copies: 2 + 2
B16: MB034 (antibody, mouse IgG1, kappa)
heavy: B1 heavy with E229T, D230T, Y231P, E234S, M235S
light: not shown
notes: copies: 2 + 2
B17: MB030 (antibody, mouse IgG1, kappa)
heavy: B1 heavy with E229T, D230P, Y231P, E234S, M235S
light: not shown
notes: copies: 2 + 2
B18: MB019 (antibody, mouse IgG1, kappa)
heavy: B1 heavy with E229T, D230A, Y231P, E234S, M235S
light: not shown
notes: copies: 2 + 2
B19: MB037 (antibody, mouse IgG1, kappa)
heavy: B1 heavy with E229T, D230V, Y231A, E234S, M235S
light: not shown
notes: copies: 2 + 2
B20: MB013 (antibody, mouse IgG1, kappa)
heavy: B1 heavy with E229Q, D230V, Y231P, E234S, M235S
light: not shown
notes: copies: 2 + 2
B21: MB039 (antibody, mouse IgG1, kappa)
heavy: B1 heavy with E229T, D230V, Y231E, E234S, M235S
light: not shown
notes: copies: 2 + 2
B22: MB027 (antibody, mouse IgG1, kappa)
heavy: B1 heavy with E229T, D230L, Y231P, E234S, M235S
light: not shown
notes: copies: 2 + 2
B23: MB040 (antibody, mouse IgG1, kappa)
heavy: B1 heavy with E229T, D230V, Y231F, E234S, M235S
light: not shown
notes: copies: 2 + 2
B24: MB021 (antibody, mouse IgG1, kappa)
heavy: B1 heavy with E229T, D230E, Y231P, E234S, M235S
light: not shown
notes: copies: 2 + 2
B25: MB020 (antibody, mouse IgG1, kappa)
heavy: B1 heavy with E229T, Y231P, E234S, M235S
light: not shown
notes: copies: 2 + 2
B26: MB016 (antibody, mouse IgG1, kappa)
heavy: B1 heavy with E229V, D230V, Y231P, E234S, M235S
light: not shown
notes: copies: 2 + 2
B27: MB028 (antibody, mouse IgG1, kappa)
heavy: B1 heavy with E229T, D230M, Y231P, E234S, M235S
light: not shown
notes: copies: 2 + 2
B28: MB025 (antibody, mouse IgG1, kappa)
heavy: B1 heavy with E229T, D230I, Y231P, E234S, M235S
light: not shown
notes: copies: 2 + 2
B29: MB003 (antibody, mouse IgG1, kappa)
heavy: B1 heavy with D230V, Y231P, E234S, M235S
light: not shown
notes: copies: 2 + 2
B30: MB031 (antibody, mouse IgG1, kappa)
heavy: B1 heavy with E229T, D230Q, Y231P, E234S, M235S
light: not shown
notes: copies: 2 + 2
B31: MB038 (antibody, mouse IgG1, kappa)
heavy: B1 heavy with E229T, D230V, Y231D, E234S, M235S
light: not shown
notes: copies: 2 + 2

Biological target: T1, mouse FcγRII extracellular domain with …
Assay: SPR Biacore T200
Method: (§1) Each altered antibody was analyzed for its interaction with each Fcγ receptor prepared above using Biacore T100 (GE Healthcare Japan Corp.), Biacore T200 (GE Healthcare Japan Corp.), Biacore A100, or Biacore 4000. The running buffer used was HBS-EP+ (GE Healthcare Japan Corp.). The assay temperature was set to 25° C. The sensor chips used were chips prepared by immobilizing Protein L (ACTIGEN or BioVision) onto Series S Sensor Chip CM5 (GE Healthcare Japan Corp.) or Series S Sensor Chip CM4 (GE Healthcare Japan Corp.) by the amine coupling method.
(§2) In order to calculate the KD value of each altered antibody for FcγR, kinetic analysis was conducted according to the following method: first, the antibody of interest was captured onto any of these chips and allowed to interact with mFcγR diluted with a running buffer. For the obtained sensorgram, the assay results were globally fit into the 1:1 Langmuir binding model using Biacore Evaluation Software to calculate an association rate constant ka (L/mol/s) and a dissociation rate constant kd (1/s). From these values, the dissociation constant KD (mol/L) was calculated.

Row | relative mFcγRII-binding activity (mIgG1 = 1) | Binder
1 | 10.7 | B1
2 | 0.5 | B2
3 | 1.2 | B3
4 | 38.6 | B4
5 | 8.3 | B5
6 | 4.5 | B6
7 | 3.5 | B7
8 | 1.6 | B8
9 | 2.8 | B9
10 | 1.5 | B10
11 | 1.2 | B11
12 | 1.8 | B12
13 | 6.5 | B13

Biological target: T2, mouse FcγRIII extracellular domain with …
Assay: SPR Biacore T200
Method: as §1, §2

Row | relative mFcγRIII-binding activity (mIgG1 = 1) | Binder
14 | 0.6 | B1
15 | 0.1 | B2
16 | 0.4 | B3
17 | 1.6 | B4
18 | 0.6 | B5
19 | 0.2 | B6
20 | 0.3 | B7
21 | 0.7 | B8
22 | 0.3 | B9
23 | 0.1 | B10
24 | 0.4 | B11
25 | 1.3 | B12
26 | 0.6 | B13

Biological target: T3, mouse FcγRII
Assay: SPR Biacore 4000, KD ratio
Method: as §1, §2

Row | relative mFcγRII-binding activity (mIgG1 = 1) [fold] | Binder
27 | 2.72 | B14
28 | 1.2 | B15
29 | 1.25 | B16
30 | 5.26 | B17
31 | 2.7 | B18
32 | 1.54 | B19
33 | 1.2 | B20
34 | 3.27 | B21
35 | 1.88 | B22
36 | 1.47 | B23
37 | 8.52 | B24
38 | 7.97 | B25
39 | 1.15 | B26
40 | 1.83 | B27
41 | 1.19 | B28
42 | 5.06 | B29
43 | 1.99 | B30
44 | 3.15 | B31

Biological target: T4, mouse FcγRIII
Assay: SPR Biacore 4000, KD ratio
Method: as §1, §2

Row | relative mFcγRIII-binding activity (mIgG1 = 1) [fold] | Binder
45 | 1.47 | B14
46 | 0.9 | B15
47 | 1.12 | B16
48 | 2.27 | B17
49 | 1.44 | B18
50 | 1.22 | B19
51 | 1.07 | B20
52 | 1.29 | B21
53 | 1.55 | B22
54 | 1.17 | B23
55 | 3.58 | B24
56 | 2.84 | B25
57 | 1 | B26
58 | 1.42 | B27
59 | 1.06 | B28
60 | 1.51 | B29
61 | 1.48 | B30
62 | 1.37 | B31
